Test [1] concerns the target Recombinant MDM2 (baculovirus-expressed, pBlueBacHis2:MDM2) (human) (UniProt Q00987). Description: cell-based or functional assay.
Test [2] has the same target. As to the kind of experiment: cell-based or functional assay. This is another data set of the same source.

Data on one substance can be found in US20080085279A1.

Read-outs that look alike come from different tables or passages of the source.

Sequence of Recombinant MDM2 (baculovirus-expressed, pBlueBacHis2:MDM2) (human) (Q00987 whole entry): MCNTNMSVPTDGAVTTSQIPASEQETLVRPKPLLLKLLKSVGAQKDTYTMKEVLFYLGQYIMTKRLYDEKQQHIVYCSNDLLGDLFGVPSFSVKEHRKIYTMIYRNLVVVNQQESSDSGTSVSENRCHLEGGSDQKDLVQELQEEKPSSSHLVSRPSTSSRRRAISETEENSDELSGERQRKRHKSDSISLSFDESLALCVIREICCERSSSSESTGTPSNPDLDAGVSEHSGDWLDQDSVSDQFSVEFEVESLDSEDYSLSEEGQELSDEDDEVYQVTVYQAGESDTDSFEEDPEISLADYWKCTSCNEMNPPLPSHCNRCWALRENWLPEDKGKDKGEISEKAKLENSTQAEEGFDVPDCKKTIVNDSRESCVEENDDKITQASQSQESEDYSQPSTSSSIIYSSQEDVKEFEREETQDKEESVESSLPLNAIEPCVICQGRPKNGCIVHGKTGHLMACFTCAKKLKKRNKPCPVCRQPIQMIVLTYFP

With “Recombinant hMTBP (bacterially expressed from pQE-hMTBP) (from UniProt Q96DY7 1-904)”, the MDM2 auto-ubiquitination in vitro (molar ratio MTBP:MDM2) in test [1] turned out to be 10; in test [2] it was 3.
